Assay results: the supplement of paper PMC9732359
± gives the uncertainty stated by the source.

Test: protein stability index of a GFP-peptide fusion (yeast GPS) (PSI 1-4); higher = more stable; sorted into four equal gates, so the index is relative within each strain
Conditions: ubr1∆
Summary of the method: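 Yeast carrying a pooled library were grown to mid-log phase in leucine-free medium. Each library plasmid expresses Cherry and has a tiled 17-residue yeast protein peptide fused downstream of GFP. Cells were sorted into four equal gates by GFP/Cherry ratio, and plasmids from each gate were PCR-amplified, Illumina-sequenced and assigned to strains by barcode. Summing, across gates, the read frequency times the gate number gave each peptide's protein stability index.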

Sequence	protein stability index
TDRQKKLLGVDMQSSVD [YLR018C/POM34]	3.15 ± 0.044
TDYARAKNRILASKIKQ [RRI1]	1.91 ± 0.063
TEDIREGDQAEVIFSFE [YMR129W/POM152]	3.44 ± 0.071
TEEPDLAIADVETKLET [DSN1]	3.5 ± 0.14
TEGCIGLSQTEAFGNIK [MCD1]	2.56 ± 0.072
TEISPMAGSQFENGNIT [RRP45]	2.71 ± 0.062
TEKQRKKQIAFPQRKYA [RPL35A]	1.15 ± 0.08
TELASKDNAIYNGFIDI [YCS4]	1.48 ± 0.05
TELLDEFIAAVNNPQEE [RPN10]	2.83 ± 0.15
TENEIPNLIEKMVAKGL [BRR2]	2.78 ± 0.11
TERHIQVGDGLEILIVT [PRE7]	3.12 ± 0.065
TFDSSWNWAKQSLLSLY [FAS2]	1.58 ± 0.073
TFSPSGKLGQIDYALTA [PRE8]	2.85 ± 0.064
TFSQESGLMVILYTSKI [RRI2]	2.94 ± 0.053
TFSSSISTYISTDELVG [POP8]	3.02 ± 0.069
TFVHVTDLSGKETIARV [RPS14A]	2.4 ± 0.055
TFVPTNSDKPRDVYVFD [DIS3]	3 ± 0.059
TGAGVDVNTNANANANA [SNF11]	3.34 ± 0.051
TGDVLLIQDLLHRLTPK [RPN1]	2.8 ± 0.059
TGESWVKLTYNSPSSAL [YDL088C/ASM4]	2.02 ± 0.04
TGHLFLKIIHTSVWAGQ [PRP8]	1.28 ± 0.051
TGKDCVAIACDLRLGSQ [PUP3]	2.7 ± 0.061
TGLHFGRLSLRSLTAYA [QCR10]	1.65 ± 0.055
TGLSQIPNRRFTLWWSP [PRP8]	2.52 ± 0.042
TGLVSIRGKILTGTVVS [RPS11A]	2.89 ± 0.038
TGPIEPKARQELPTQLA [RRP46]	3.04 ± 0.056

Sequence	protein stability index
TGPKQQEITTNLENHFK [SCL1]	2.9 ± 0.03
THAVGNNCEDFVSRPDR [FAS1]	3.04 ± 0.087
THNDIDSTAVALEEGLN [YJL039C/NUP192]	2.56 ± 0.06
THNSYEKACQVLKYMLL [RPN6]	3.26 ± 0.071
THSQTGTQQSNMYTSTQ [SIR4]	3.08 ± 0.055
TICIELKTVLHNGRDKI [RGR1]	1.78 ± 0.067
TIDNIDSENFSFEKLYE [YMR129W/POM152]	3.17 ± 0.047
TIGKRRTTTNTTAEPKA [TAF14]	3.2 ± 0.05
TISECNLYDDVKCWSKF [MED1]	3.14 ± 0.12
TISQALLNAADRDALSG [PUP3]	1.95 ± 0.068
TISSADFIQNVGRLWDQ [ECM29]	3.42 ± 0.061
TIVQLCKKKEMSQYQST [YIL149C/MLP2]	1.8 ± 0.052
TIVSNVEEKPGDRGALA [RPL2A]	3.4 ± 0.12
TKDPDEQQLFEIFAFGN [CSN9]	2.83 ± 0.053
TKEQYAAESKKYRQTKL [RPL5]	3.12 ± 0.1
TKLHSGDYGEEEDADQE [SRB8]	2.38 ± 0.2
TKMDGHARGGGAISAVA [SRP54]	3.62 ± 0.26
TKNNTQASGITAGAAAN [SSN3]	1.97 ± 0.062
TKSETKQENETMQPPYI [MED11]	2.96 ± 0.042
TKSPAYPMMHQVRNQVF [RGR1]	2.23 ± 0.047
TKYSDVLGFLQLFHNLI [YJL039C/NUP192]	2.94 ± 0.049
TKYTDDMATGSNDTTAF [SRB8]	3.29 ± 0.058
TLDNIDDINKAKAVWEN [ARP9]	3.27 ± 0.058
TLDNPLLVDKDANGVSL [YJL039C/NUP192]	3.13 ± 0.035
TLDREYITLKATFLKDD [QCR2]	1.5 ± 0.048
TLETIEIHPITFPPEVL [RRP43]	2.01 ± 0.035

Sequence	protein stability index
TLISRISSLFTITTILI [YML103C/NUP188]	2.02 ± 0.11
TLKYICAECSSKLSLSR [RPC10]	2.65 ± 0.056
TLNNIFRFDSIQRETLL [GRR1]	3.1 ± 0.04
TLRTISFKGSPNERKAK [SNF2]	2.51 ± 0.13
TMLITGQRPDRATTYEK [SIN4]	3.22 ± 0.05
TMMANFEEWIKMATDNK [BRN1]	3.35 ± 0.1
TNAFLDSLTRAVKDQQK [SNF2]	2.56 ± 0.046
TNAPLRTLNIQPEVAVK [YIL149C/MLP2]	2.23 ± 0.042
TNKENNIVDSSAAGNKA [YIL149C/MLP2]	2.92 ± 0.036
TNLKNHPAYLFKGLETP [YLR018C/POM34]	2.36 ± 0.028
TNNDSNNKNNSITTGND [MED2]	1.87 ± 0.043
TNNGNDDNETENPNFWR [GRR1]	2.75 ± 0.041
TNNTIRYNAKRRNWRRT [RPL39]	3.58 ± 0.14
TNQLKSLKGLQSKLKDV [RPN8]	1.36 ± 0.13
TNSEDKLSKVQLYEDLC [MED4]	2.74 ± 0.059
TNSHYNNTNTDNVSGLT [SNF2]	3.25 ± 0.034
TNVIAFAFWNLLVKFIK [YLR018C/POM34]	1.48 ± 0.042
TNVNPSKNFNVILASSL [YML103C/NUP188]	1.91 ± 0.045
TNWARTTFRNEYGKHDF [MED8]	3.55 ± 0.19
TNYEMSYWQKSYFKNSV [LIN1]	1.99 ± 0.037
TPKYRLVVRFTNKDIIC [RPL5]	1.36 ± 0.071
TPLFHALAEGHGDAAVL [NAS6]	2.61 ± 0.12
TPLTFALPRGARTATVS [RPL14A]	1.57 ± 0.049
TPMGGFVHYGEIKNDFI [RPL3]	3.28 ± 0.078
TPNVNVLVLHGDKDTRA [ISW2]	2.81 ± 0.05
TPQSKGFVRNSFFSGLS [RPO31]	2.86 ± 0.046

Sequence	protein stability index
TPSLPIAPPVAPHDSEA [SNF5]	2.52 ± 0.066
TPSSDQNPLPTRFEVEL [SOH1]	3.19 ± 0.049
TPTHSDSHEDMKRRRLE [ROX3]	3.14 ± 0.091
TQDVFLKDFNTERVVEI [FAS2]	3.093 ± 0.019
TQEQFVKRRRDMLEHIN [SRB4]	1.26 ± 0.089
TQQQPGAPGANARMPGM [SRP54]	2.7 ± 0.084
TQQSHEQQPEQPQETEE [RPT4]	2.98 ± 0.047
TQTEELKFMAASEVATH [PRP8]	2.66 ± 0.066
TQTGLLQDLEEAKSFQD [RPC82]	2.59 ± 0.11
TQYATSQKTKTIQSDLN [SMC2]	2.85 ± 0.05
TRASKVLEQLSGQTPVQ [RPL11A]	3.06 ± 0.077
TRDEKDPKRLFEGNALI [RPS9A]	3.71 ± 0.15
TRFPPAVFYTPKELGGL [PRP8]	3.04 ± 0.063
TRGRNIIMHKDVEIGRM [RET1]	2.74 ± 0.15
TRGRSATIRETYEIICD [RRP43]	2.62 ± 0.035
TRLLNIVMQLRKCCNHP [ISW2]	2.84 ± 0.057
TRSIKEKWLLNQIPVTE [SRB6]	1.18 ± 0.17
TRTVITDWDPQFNAITG [SMC2]	2.76 ± 0.098
TRYMFQRDFRKHGAVHM [RPL21B]	1.99 ± 0.077
TSAHEAIRADPAFKPTE [RPL5]	3.33 ± 0.11
TSASQPFKFGKTSEKSE [YOR098C/NUP1]	3.17 ± 0.093
TSCLQNNNQKIDDNYIV [SRB8]	3.05 ± 0.062
TSDGALSVMCGCGTVKR [RPR2]	1.78 ± 0.13
TSINHKIYRVGKGDDEA [RPL3]	3.28 ± 0.11
